Earlier results on 1 substance are cited in article PMC5936680.

For the data set, the target named is Hemoglobin αβ dimer (Homo sapiens) (UniProt P69905).

As for “Hemoglobin αβ dimer (from UniProt P69905)”, the Kd (commonly the constant that tells how readily two partners part at equilibrium) is 1 µM.
